Kd data for one molecule are collected here from PMC4565748 (2015).

In this experiment the target is C3b (Homo sapiens, UniProt P01024). Briefly: AlphaAssay.
Sequence of C3b (P01024 23-667, chain 1 of 2): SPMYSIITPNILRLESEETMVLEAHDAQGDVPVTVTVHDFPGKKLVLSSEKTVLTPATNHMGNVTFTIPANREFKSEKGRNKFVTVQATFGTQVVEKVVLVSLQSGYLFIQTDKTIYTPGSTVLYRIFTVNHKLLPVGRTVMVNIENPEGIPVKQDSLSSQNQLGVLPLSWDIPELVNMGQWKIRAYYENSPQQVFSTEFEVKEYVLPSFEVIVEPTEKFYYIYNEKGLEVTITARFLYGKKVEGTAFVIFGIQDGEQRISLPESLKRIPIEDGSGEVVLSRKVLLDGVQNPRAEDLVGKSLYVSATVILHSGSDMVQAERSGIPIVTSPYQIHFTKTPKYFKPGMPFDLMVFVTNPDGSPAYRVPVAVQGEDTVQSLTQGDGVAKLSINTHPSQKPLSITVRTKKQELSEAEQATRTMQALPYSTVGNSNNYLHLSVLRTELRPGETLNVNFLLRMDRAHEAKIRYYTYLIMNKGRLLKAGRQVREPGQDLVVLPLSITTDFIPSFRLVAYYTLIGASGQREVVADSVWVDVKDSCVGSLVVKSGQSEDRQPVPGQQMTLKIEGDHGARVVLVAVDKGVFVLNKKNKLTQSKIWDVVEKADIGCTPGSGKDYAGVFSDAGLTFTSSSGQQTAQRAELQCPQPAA
Sequence of C3b (P01024 749-1663, chain 2 of 2): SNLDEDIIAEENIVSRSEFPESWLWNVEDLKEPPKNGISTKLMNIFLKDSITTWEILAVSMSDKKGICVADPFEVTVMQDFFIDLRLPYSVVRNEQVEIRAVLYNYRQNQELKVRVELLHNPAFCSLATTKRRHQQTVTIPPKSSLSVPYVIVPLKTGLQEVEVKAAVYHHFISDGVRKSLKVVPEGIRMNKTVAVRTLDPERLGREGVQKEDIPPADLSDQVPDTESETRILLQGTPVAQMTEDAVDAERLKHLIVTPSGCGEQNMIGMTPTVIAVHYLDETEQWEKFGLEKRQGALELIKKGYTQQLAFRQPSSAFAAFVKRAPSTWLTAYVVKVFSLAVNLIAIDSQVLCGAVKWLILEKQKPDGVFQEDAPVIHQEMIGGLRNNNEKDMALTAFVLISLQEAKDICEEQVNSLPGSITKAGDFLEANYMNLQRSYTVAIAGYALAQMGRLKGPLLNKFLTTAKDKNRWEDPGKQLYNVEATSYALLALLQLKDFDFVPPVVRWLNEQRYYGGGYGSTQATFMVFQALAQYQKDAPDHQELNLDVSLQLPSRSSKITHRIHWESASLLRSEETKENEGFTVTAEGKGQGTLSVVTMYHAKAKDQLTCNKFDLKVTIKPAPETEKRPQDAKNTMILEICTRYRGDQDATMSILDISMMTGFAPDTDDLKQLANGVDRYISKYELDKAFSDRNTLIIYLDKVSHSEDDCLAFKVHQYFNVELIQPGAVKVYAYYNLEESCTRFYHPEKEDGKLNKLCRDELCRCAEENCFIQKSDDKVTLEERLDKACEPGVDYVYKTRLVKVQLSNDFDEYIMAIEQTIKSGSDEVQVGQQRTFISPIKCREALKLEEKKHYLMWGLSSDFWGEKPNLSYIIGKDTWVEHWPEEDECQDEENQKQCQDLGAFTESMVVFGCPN

B1: SCIN-A (protein)
chain: STSLPTSNEYQNEKLANELKSLLDELNVNELATGSLNTYYKRTIKISGQKAMYALKSKDFKKMSEAKYQLQKIYNEIDEALKSKY
Take B1: the Kd (commonly the constant that tells how readily two partners part at equilibrium) was 74 nM.
